# Like-named read-outs stand apart in the source and are kept apart here.
# B1: GST-Nogo: GST fusion protein of the 66 amino acid lumenal-extracellular fragment of Nogo-A, expressed in E. coli (protein)
# chain: RIYKGVIQAIQKSDEGHPFRAYLESEVAISEELVQKYSNSALGHVNCTIKELRRLFLVDDLVDSLK
# modifications: also: GST fusion protein
# notes: GST fusion protein of the 66 amino acid lumenal-extracellular fragment of Nogo-A, expressed in E. coli
# B2: AP-Nogo: fusion protein of His6 tag, placental alkaline phosphatase (AP) and the 66 amino acid active domain of Nogo (protein)
# chain: HHHHHHIIPVEEENPDFWNREAAEALGAAKKLQPAQTAAKNLIIFLGDGMGVSTVTAARILKGQKKDKLGPEIPLAMDRFPYVALSKTYNVDKHVPDSGATATAYLCGVKGNFQTIGLSAAARFNQCNTTRGNEVISVMNRAKKAGKSVGVVTTTRVQHASPAGTYAHTVNRNWYSDADVPASARQEGCQDIATQLISNMDIDVILGGGRKYMFRMGTPDPEYPDDYSQGGTRLDGKNLVQEWLAKRQGARYVWNRTELMQASLDPSVTHLMGLFEPGDMKYEIHRDSTLDPSLMEMTEAALRLLSRNPRGFFLFVEGGRIDHGHHESRAYRALTETIMFDDAIERAGQLTSEEDTLSLVTADHSHVFSFGGYPLRGSSIFGLAPGKARDRKAYTVLLYGNGPGYVLKDGARPDVTESESGSPEYRQQSAVPLDEETHAGEDVAVFARGPQAHLVHGVQEQTFIAHVMAFAACLEPYTACDLAPPAGTTDAAHPGRIYKGVIQAIQKSDEGHPFRAYLESEVAISEELVQKYSNSALGHVNCTIKELRRLFLVDDLVDSLK
# B3: NgR-ecto: secreted fragment of amino acid residues 1-348 of the murine NgR, in HEK293T conditioned medium (protein)
# chain: CPGACVCYNEPKVTTSCPQQGLQAVPTGIPASSQRIFLHGNRISHVPAASFQSCRNLTILWLHSNALARIDAAAFTGLTLLEQLDLSDNAQLHVVDPTTFHGLGHLHTLHLDRCGLRELGPGLFRGLAALQYLYLQDNNLQALPDNTFRDLGNLTHLFLHGNRIPSVPEHAFRGLHSLDRLLLHQNHVARVHPHAFRDLGRLMTLYLFANNLSMLPAEVLMPLRSLQYLRLNDNPWVCDCRARPLWAWLQKFRGSSSEVPCNLPQRLADRDLKRLAASDLEGCAVASGPFRPIQTSQLTDEELLSLPKCCQPDAADKASVLE
# modifications: left off: small tags and cut ends
# notes: secreted fragment of amino acid residues 1-348 of the murine NgR, in HEK293T conditioned medium
# Columns and labels:
# Format in all cases: cell-based
# [1] = tested on: chick E12 dorsal root ganglion growth cones; assay: Growth cone collapse assay in chick dorsal root ganglion explants
# Experimental: (§1) For all experiments involving cell culture, the following methods were employed. The culture of embryonic chick E10 and E12 dorsal root ganglion explants and dissociated neurons utilized methods described for E7 dorsal root ganglion cultures (Takahashi et al., (1998) Nature Neurosci. 1, 487-493; Takahashi et al., (1999) Cell 99, 59-69; Goshima et al., (1995) Nature 376, 509-514; Jin & Strittmatter, (1997) J. Neurosci. […]). NGF-differentiated PC12 cells were cultured as described (Strittmatter et al., (1994) J. Neurosci. 14, 2327-2338). Embryonic spinal cord explants (rat E10 or chick E5) were cultured for 7-14 days in the presence of PDGF-AA to induce differentiation of some cells into mature oligodendrocytes (Vartanian et al., (1999) Proc. Natl. Acad. Sci. USA 96, 731-735). The procedure for growth cone collapse assays is identical to that for analysis of Sema3A-induced growth cone collapse (Takahashi et al., (1998) Nature Neurosci. 1, 487-493; Takahashi et al., (1999) Cell 99, 59-69; Goshima et al., (1995) Nature 376, 509-514; Jin & Strittmatter, (1997) J. Neurosci. 17, 6256-6263). The method for analysis of total neurite outgrowth has also been described (Goshima et al., (1995) Nature 376, 509-514; Jin & Strittmatter, (1997) J. Neurosci. 17, 6256-6263; Strittmatter et al., (1994) J. Neurosci. 14, 2327-2338). In outgrowth assays, proteins and peptides were added one hour after plating to minimize any effect on the total number of adherent cells. To test the effect of substrate-bound GST or GST-Nogo, the protein solutions were dried on poly-L-lysine coated glass, washed and then coated with laminin. For E12 cultures, the neuronal identity of cells was verified by staining with anti-neurofilament antibodies (2H3, Develomental Studies Hybridoma Bank) and neurites were traced by observation of rhodamine-phalloidin staining of F-actin in processes.
# The expression of recombinant Nogo in HEK293T cells allows a rigorous test of whether this protein has axon outgrowth inhibiting effects. Washed membrane fractions from vector- or hNogo-A-Myc-transfected HEK293T cells were added to chick E12 dorsal root ganglion explant cultures. Growth cone morphology was assessed after a thirty minute incubation at 37° C. by fixation and rhodamine-phalloidin staining.
# Briefly, for growth cone collapse, DRG explants were plated on plastic chamber slides precoated with 100 μg ml^−1 poly-L-lysine and 10 μg ml^−1 laminin. Cultures were grown 14-16 h prior to treatment.
# [2] = tested on: GST-Nogo-induced growth cone collapse; assay: Blockade of Nogo-induced growth cone collapse in chick DRG cultures; settings: GST-Nogo / Nogo-66 as collapsing agent
# Experimental: as §1
# In the growth cone collapse assay, the response to Nogo was measured in the presence of various potential antagonistic peptides. […] This blockade supports the hypothesis that Nogo is a primary inhibitory component of CNS myelin.
# For further testing, a synthetic peptide containing amino acid residues #1055-1094 of hNgR, acetylated at the […] was used [hereinafter “Peptide 140”]. […] Antagonist of Nogo-66 inhibitory activity may act by competing for, and thereby blocking NgR binding sites. To determine the antagonistic activity of Peptide 140, the above synthetic form of the peptide was added to E12 chick DRG explant cultures approximately 10 min before application of various concentrations of GST-NogoA (residues #1055-1120), TPA or Sema3A. 30 min later, cultures were fixed and growth cone collapse was assessed following staining with rhodamine-phalloidin.
# [3] = tested on: CNS myelin induced neurite outgrowth inhibition; assay: Blockade of CNS myelin induced neurite outgrowth inhibition in chick DRG neurons
# Experimental: To determine the antagonistic activity of Peptide 140 against CNS myelin, the above synthetic peptide was added approximately 10 min before application of CNS myelin. 30 min later, cultures were fixed and growth cone collapse was assessed following staining with rhodamine-phalloidin. For neurite outgrowth assays, plastic chamber slide were coated with 100 μg ml^−1 poly-L-lysine, washed, and dried. 3 μl drops of PBS containing CNS myelin were spotted and dried. Slides were then rinsed and coated with 10 μg ml fs24^−1 laminin before addition of dissociated E12 chick DRGs. Peptide 140, or the scrambled version of Peptide 140, was added at the time of cell plating. Cultures were grown for 5-7 h after which neurite outgrowth was assessed.
# Although the role of the GPI anchor may be to regulate NgR cellular compartmentalization, another possible role for the GPI linkage is to provide a NgR cleavage site. Cleaving NgR could serve to affect hNogo-A (1055-1120) signaling by rendering a neuron insensitive to hNogo-A (1055-1120) and by releasing soluble NgR that could then act on adjacent cells to modulate hNogo-A (1055-1120) signaling. To determine if soluble mNgR modulates hNogo-A (1055-1120)-dependent inhibition, a soluble mNgR was generated by inserting a truncated cDNA encoding mNgR residues 1-348 in frame with a myc-His carboxy tag into pcDNA3.1. The resulting plasmid expressing mNgREcto was transfected into HEK293T cells, and conditioned media containing mNgREcto protein was collected. To test the effect of mNgREcto on Nogo signaling, E13 dissociated DRGs were plated in the presence of hNogo-A (1055-1120) or myelin. The inhibitors were presented in either soluble or substrate-bound forms. For neurite outgrowth assays on hNogo-A (1055-1120) or myelin substrates, Permanox chamber slides were coated with 100μ, fs24 g ml^−1 poly-L-Lysine, washed, and then 3-μl drops of phosphate-buffered saline (hereinafter “PBS”) containing 0, 10, 50, or 150 ng of GST-hNogo-A (1055-1120) or myelin were spotted and dried. GST-hNogo-A (1055-1120) and myelin were prepared as previously described (GrandPre et al., supra; Fournier et al., J. Cell Biol. 149:411-421, 2000). After three PBS washes, slides were coated with 10 μg ml^−1 laminin. Laminin was then aspirated and dissociated E13 chick DRG neurons were added. After 6-8 hr of outgrowth, cultures were fixed and neurite outgrowth lengths were assessed. For blockade experiments with NgREcto, spots were incubated with HEK293T cell conditioned media or NgREcto-transfected-HEK293T cell conditioned media following for 1 hr following the laminin coating step and before the addition of dissociated neurons. […] Thus, soluble fragments of NgR might serve physiologically or pharmacologically to reduce GST-hNogo-A (1055-1120) inhibition of axonal regeneration.
# [4] = listed as NgR ectodomain protein
# [5] = listed as mNgR ectodomain protein
molecule,measurement,setting,value
"Peptide 140: synthetic peptide of amino acids #1055-1094 of the human NogoA protein, acetylated and amidated at the termini (Ac-RIYKGVIQAIQKSDEGHPFRAYLESEVAISEELVQKYSNS-NH2; UniProt Q9NQC3 1055-1094, looked up, fragment)",growth cone collapse activity (in words),"[1]; added to DRG explant cultures, thirty minutes",does not induce significant growth cone collapse
same,blockade of Nogo-induced growth cone collapse (in words),[2],significantly blocks growth cone collapse
same,blockade of CNS myelin induced neurite outgrowth inhibition (in words),[3],partial neutralization
same,concentration at which maximal activity is obtained,[3]; bound CNS myelin,approximately 250 nM
same,neurite outgrowth on a 20 ng spot of myelin (as compared with control outgrowth),"[3]; following treatment with Peptide 140, E12 chick DRG",65%
"Pep2-41: 2-41 fragment of the 66 amino acid region of Nogo, acetylated and amidated at the termini (Ac-RIYKGVIQAIQKSDEGHPFRAYLESEVAISEELVQKYSNS-NH2)",blockade of Nogo-induced growth cone collapse (in words),[2],abolishes GST-Nogo-induced growth cone collapse
same,blockade of CNS myelin induced neurite outgrowth inhibition (in words),[3],can reverse the inhibition of neurite outgrowth
same,blockade of CNS myelin induced neurite outgrowth inhibition (in words),[3]; listed as 2-41 fragment,blocks
B1,relative potency in growth cone collapse (comparator in the words),[1],even more potent than the urea-extracted protein
same,relative potency in growth cone collapse (comparator in the words),[1]; listed as GST-Nogo-66,two orders of magnitude more potent than Amino-Nogo
same,concentration acutely altering growth cone morphology (as low as),[1]; soluble GST-Nogo purified on glutathione-Sepharose resin,1 nM
same,growth cone morphology (in words),"[1]; soluble form at 100 nM, chick E12 DRG",collapses chick E12 dorsal root ganglion growth cones
same,EC50,"[1]; urea-extracted GST-Nogo, chick E12 dorsal root ganglion neurons, read-out: EC50 growth cone collapsing activity",50 nM
B2,relative potency in growth cone collapse (comparator in the words),[1],slightly more potent than GST-Nogo
same,growth cone collapse (in words),"[1]; conditioned medium, AP-fusion protein final concentration 20 nM, E12 chick DRG",potent growth-cone-collapsing agent
B3,blockade of Nogo-induced growth cone collapse (in words),[2],prevents Nogo-66-induced growth cone collapse
same,blockade of Nogo-induced growth cone collapse (in words),[2]; [4],blocked
same,blockade of Nogo-induced growth cone collapse (in words),[2]; [5],blocked
same,blockade of CNS myelin induced neurite outgrowth inhibition (in words),[3],blocks the ability of CNS myelin to inhibit axonal outgrowth
same,blockade of CNS myelin induced neurite outgrowth inhibition (in words),[3]; [4],blocked
same,blockade of CNS myelin induced neurite outgrowth inhibition (in words),[3]; listed as NgREcto,partially reversed
same,blockade of CNS myelin induced neurite outgrowth inhibition (in words),[3]; [5],blocked
